# Laboratory results taken from paper PMC6509336, “Wnt5a is a TLR2/4-ligand that induces tolerance in human myeloid cells” (Communications Biology, 2019).
# B1: recombinant human/mouse (rh/m)Wnt5a (ligand, UniProt P41221 62-380, looked up)
# chain: IIGAQPLCSQLAGLSQGQKKLCHLYQDHMQYIGEGAKTGIKECQYQFRHRRWNCSTVDNTSVFGRVMQIGSRETAFTYAVSAAGVVNAMSRACREGELSTCGCSRAARPKDLPRDWLWGGCGDNIDYGYRFAKEFVDARERERIHAKGSYESARILMNLHNNEAGRRTVYNLADVACKCHGVSGSCSLKTCWLQLADFRKVGDALKEKYDSAAAMRLNSRGKLVQVNSRFNSPTTQDLVYIDPSPDYCVRNESTGSLGTQGRLCNKTSEGMDGCELMCCGRGYDQFKTVQTERCHCKFHWCCYVKCKKCTEIVDQFVCK
# notes: Wnt5a, recombinant human/mouse protein from R&D Systems, molecular weight 38,000; Lyophilized from PBS, EDTA and CHAPS; No catalogue number is printed; also called rWnt5a; source: bought: R&D Systems
# Columns and labels:
# Experiment in all cases: SPR; Biacore 3000, CM5 chip; rhTLR2, rhTLR4/MD2 and rhTLR4 amine-coupled (4.0, 4.7, 4.0 kRU); Wnt5a or Wnt3a injected at 25-100 nM for 2 min at 30 ul/min in HBS-P (10 mM HEPES, 0.15 M NaCl, 0.005% P20, pH 7.4) with ZnCl2 and CaCl2; Req from a 1:1 fit plotted against concentration and fit to a one-site hyperbola (steady-state KD)
# Details in all cases: both partners purified
# rhTLR2 = molecular target: T1, rhTLR2 (human, UniProt O60603 21-588)
# T1 construct: toll-like receptor 2, recombinant human protein from R&D Systems; No catalogue number, tags or construct limits are printed; source: bought: R&D Systems
# T1 sequence (O60603 21-588): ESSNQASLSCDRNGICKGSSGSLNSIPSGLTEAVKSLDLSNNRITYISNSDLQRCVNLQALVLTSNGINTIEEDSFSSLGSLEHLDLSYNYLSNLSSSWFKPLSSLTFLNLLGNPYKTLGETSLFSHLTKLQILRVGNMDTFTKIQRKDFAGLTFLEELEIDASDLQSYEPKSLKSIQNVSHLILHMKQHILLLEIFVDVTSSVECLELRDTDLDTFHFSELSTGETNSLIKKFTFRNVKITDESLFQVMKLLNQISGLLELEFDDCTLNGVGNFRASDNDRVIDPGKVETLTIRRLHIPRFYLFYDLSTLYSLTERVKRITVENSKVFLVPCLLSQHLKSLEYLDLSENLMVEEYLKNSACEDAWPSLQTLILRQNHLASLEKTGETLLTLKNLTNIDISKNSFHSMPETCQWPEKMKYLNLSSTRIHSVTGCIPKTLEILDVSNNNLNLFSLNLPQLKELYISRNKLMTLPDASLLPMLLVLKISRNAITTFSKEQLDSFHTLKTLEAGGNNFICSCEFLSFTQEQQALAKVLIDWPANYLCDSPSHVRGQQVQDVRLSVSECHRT
# rhTLR4 = molecular target: T2, rhTLR4 (human, UniProt O00206 24-631)
# T2 construct: toll-like receptor 4, recombinant human protein from R&D Systems; No catalogue number or construct limits are printed; also called rhTLR4-his; source: bought: R&D Systems
# T2 sequence (O00206 24-631): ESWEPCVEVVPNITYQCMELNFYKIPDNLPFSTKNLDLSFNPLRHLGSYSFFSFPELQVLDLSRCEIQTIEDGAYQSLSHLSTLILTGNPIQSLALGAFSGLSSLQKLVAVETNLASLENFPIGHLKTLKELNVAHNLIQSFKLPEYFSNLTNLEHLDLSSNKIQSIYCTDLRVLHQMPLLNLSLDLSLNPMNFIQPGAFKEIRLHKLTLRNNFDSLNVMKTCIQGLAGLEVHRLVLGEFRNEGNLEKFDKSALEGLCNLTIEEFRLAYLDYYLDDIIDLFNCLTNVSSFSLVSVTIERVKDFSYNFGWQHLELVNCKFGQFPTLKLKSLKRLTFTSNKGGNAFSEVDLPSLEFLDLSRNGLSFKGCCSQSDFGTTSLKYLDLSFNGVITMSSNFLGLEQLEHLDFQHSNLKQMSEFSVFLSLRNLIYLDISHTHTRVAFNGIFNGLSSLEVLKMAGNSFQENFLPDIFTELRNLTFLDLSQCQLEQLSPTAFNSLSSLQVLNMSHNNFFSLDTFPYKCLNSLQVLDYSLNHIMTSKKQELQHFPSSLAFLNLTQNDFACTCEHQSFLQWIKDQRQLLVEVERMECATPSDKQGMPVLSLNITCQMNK
# rhTLR4/MD2 = molecular target: T3, rhTLR4/MD2 (human, UniProt O00206 24-631; Q9Y6Y9 19-160)
# T3 construct: toll-like receptor 4 in the recombinant human TLR4/MD2 complex from R&D Systems; MD2 (lymphocyte antigen 96) in the recombinant human TLR4/MD2 complex from R&D Systems; Bought as a preformed complex; No catalogue number, tags or construct limits are printed; source: bought: R&D Systems
# T3 sequence (O00206 24-631, chain 1 of 2): as the sequence (O00206 24-631) above
# T3 sequence (Q9Y6Y9 19-160, chain 2 of 2): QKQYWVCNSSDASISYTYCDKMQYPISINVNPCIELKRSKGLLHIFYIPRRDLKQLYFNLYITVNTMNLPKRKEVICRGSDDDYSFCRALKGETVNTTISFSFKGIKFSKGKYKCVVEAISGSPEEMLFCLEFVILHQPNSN
binder,measurement,setting,value
B1,Kd,rhTLR2,26.5 nM
same,Kd,rhTLR4,44.5 nM
same,Kd,rhTLR4/MD2,35.5 nM
